The assay has as its target T1, SsoPCNA1 (Sulfolobus solfataricus, UniProt P57766 1-249).
T1 sequence (looked up): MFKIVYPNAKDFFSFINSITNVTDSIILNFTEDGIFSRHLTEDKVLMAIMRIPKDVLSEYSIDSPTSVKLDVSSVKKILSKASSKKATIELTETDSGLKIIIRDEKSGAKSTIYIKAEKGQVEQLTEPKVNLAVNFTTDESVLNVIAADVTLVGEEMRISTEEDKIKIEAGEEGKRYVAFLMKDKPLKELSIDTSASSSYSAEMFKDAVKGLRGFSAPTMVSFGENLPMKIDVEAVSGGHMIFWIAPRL
Nature of the assay: crystal structure.

B1: SsoPCNA2 (natural protein, Sulfolobus solfataricus, UniProt Q97Z84 1-245, looked up)
chain: MKAKVIDAVSFSYILRTVGDFLSEANFIVTKEGIRVSGIDPSRVVFLDIFLPSSYFEGFEVSQEKEIIGFKLEDVNDILKRVLKDDTLILSSNESKLTLTFDGEFTRSFELPLIQVESTQPPSVNLEFPFKAQLLTITFADIIDELSDLGEVLNIHSKENKLYFEVIGDLSTAKVELSTDNGTLLEASGADVSSSYGMEYVANTTKMRRASDSMELYFGSQIPLKLRFKLPQEGYGDFYIAPRAD
Regarding B1, the binding result is reported as “binds”.

Source of the values: paper PMC2225174 (Acta Crystallographica Section F, 2006).
